These results are taken from patent publication US20200115422A1 (OXFORD UNIVERSITY INNOVATION, published 2020).

The target of assay [1] is SUMO-DogTag. The assay is described as follows: cell-based or functional assay.
Assay [2] has as its target AffiHER2-DogTag. The assay is described as follows: cell-based or functional assay.
Assay [3] has as its target DogTag-mClover3. Briefly: cell-based or functional assay.
In assay [4] the target is MBP-DogTag. Briefly: cell-based or functional assay.
Assay [5] has as its target DogTag-HaloTag7SS fusion protein. The assay is described as follows: cell-based or functional assay.
Assay [6] deals with IMX-DogTag. Briefly: cell-based or functional assay.
Assay [7] has as its target T1, biotinylated SnoopLigase (biotin on the AP peptide (BirA biotinylation)).
T1 construct: Captured or immobilised on streptavidin-agarose in the elution experiments; also called Biotin-SnoopLigase; biotin-SnoopLigase; not shown: N-terminal His6-tag and flexible GS-rich linker; AP, substrate peptide for BirA biotinylation
T1 chain: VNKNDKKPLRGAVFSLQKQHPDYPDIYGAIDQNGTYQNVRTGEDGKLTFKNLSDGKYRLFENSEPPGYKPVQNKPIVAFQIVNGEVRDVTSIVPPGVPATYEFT
Briefly: competition elution at 37 °C from biotin-SnoopLigase on streptavidin-agarose; SDS-PAGE.

Turning to HaloTag7SS-SnoopTagJr, the Percentage of DogTag partner reacted in assay [1] was found to be 99.7%; in assay [2] it was 100%; in assay [3], 96.1%; in assay [4], 97%. Also, the Percentage of SnoopTagJr partner reacted in assay [1] amounted to 99%; in assay [2] it was 99.3%; in assay [3] it was 98%.
Regarding MBP-SnoopTagJr, the Percentage of DogTag partner reacted in assay [1] worked out at 99%; in assay [2] it was 100%; in assay [3] it was 85.4%; in assay [4], 95%. The Percentage of SnoopTagJr partner reacted is 99.1% in assay [1], 93.3% in assay [2] and 79.5% in assay [3].
Consider SnoopTagJr-AffiHER2, for which the values for the reaction yield in assay [5] and in assay [1] were 90% and 99%, respectively. In addition, the Percentage of DogTag partner reacted in assay [1] is 99.9%; in assay [2] it was 99.9%; in assay [3], 94%; in assay [4], 98.4%. Moreover, the Percentage of SnoopTagJr partner reacted was found to be 99.9% in assay [1], 100% in assay [2], 99.8% in assay [3] and 100% in assay [4].
SnoopTagJr-MBP had a reaction yield in assay [6] of 96%.
SnoopTagJr-mEGFP: the Percentage of DogTag partner reacted was 99.1% in assay [1], 99.9% in assay [2], 82.3% in assay [3] and 87.8% in assay [4]. Also, the Percentage of SnoopTagJr partner reacted worked out at 100% in assay [1], 99.9% in assay [2], 89.4% in assay [3] and 99.7% in assay [4].

B1: SnoopTagJr:DogTag competitor peptide (peptide)
peptide 1: KLGSIEFIKVNK
peptide 2: DIPATYEFTDGKHYITNEPIPPK
modifications: not fully specified; Asn 17 joined by an isopeptide bond to Lys 9 of SnoopTagJr; Lys 9 joined by an isopeptide bond to Asn 17 of DogTag
notes: Made from SUMO-DogTag and synthetic SnoopTagJr peptide with immobilised HaloTag7-SnoopLigase, then cut from SUMO by Ulp1; also called SnoopTagJr:DogTag peptide conjugate; DogTag:SnoopTagJr peptide
For B1, the binding result in assay [7] is reported as “binds”.
